Source: patent US20240150443A1, “[…] MEASLES VIRUS” (The Trustees of Columbia University in the City of New York, priority 2021, published 2024)

Columns and labels:
[1] = molecular target: T1, MeV IC323 F (pre-fusion, on transfected HEK293T cells) (Measles virus strain IC323, UniProt Q786F3 24-550); experiment: immunofluorescence of transfected HEK293T cells, Alexa 488 anti 6-histidine antibody
T1 construct: whole, on cells; also called pCAGGS-MeV IC323 F; MeV F
T1 sequence: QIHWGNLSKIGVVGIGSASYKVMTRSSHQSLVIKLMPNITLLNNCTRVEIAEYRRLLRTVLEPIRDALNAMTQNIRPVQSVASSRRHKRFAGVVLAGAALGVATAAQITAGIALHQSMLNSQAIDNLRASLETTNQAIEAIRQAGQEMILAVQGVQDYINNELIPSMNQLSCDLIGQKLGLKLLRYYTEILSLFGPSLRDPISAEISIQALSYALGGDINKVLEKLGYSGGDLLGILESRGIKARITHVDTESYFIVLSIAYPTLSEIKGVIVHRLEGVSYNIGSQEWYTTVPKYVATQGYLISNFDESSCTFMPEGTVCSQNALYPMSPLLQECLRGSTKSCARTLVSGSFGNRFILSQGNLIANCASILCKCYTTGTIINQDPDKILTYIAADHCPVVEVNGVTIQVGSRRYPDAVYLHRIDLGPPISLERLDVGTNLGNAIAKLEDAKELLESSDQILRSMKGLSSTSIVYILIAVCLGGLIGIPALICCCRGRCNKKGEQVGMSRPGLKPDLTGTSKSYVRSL

[2] = test system: MeV WTFb; experiment: In vivo prophylaxis against MeV infection in cotton rats (scFv, intranasal); design: species or system cotton rats (Sigmodon hispidus)
Description: To assess anti-MeV prophylaxis by the scFv in vivo, we used cotton rats (CR) as an infection model. The scFv antibody construct was administrated via intranasal delivery 24 and 12 h before infection. Four days after infection, the animals were euthanized, and the viral titers in the animals' lungs were quantified.
Cotton rats were infected intranasally with 10^5 TCID50/ml of MeV WTFb. Animals received either the indicated amount of mAb 77.4-derived scFv construct (n=4) or vehicle (n=8) 24 h and 12 h prior to infection. Animals were euthanized 5 days after infection. Lungs were collected and homogenized for TCID50 titration. Results are presented as TCID50/g of lung. Statistical analyses were performed using the Mann-Whitney U-test.
In vivo experiments: Cotton rats. Inbred cotton rats (Sigmodon hispidus) were purchased from Envigo, Inc., Indianapolis. Both male and female cotton rats aged 5 to 7 weeks were used. For infection, 10^5 TCID50 of MeV (strain WTFb) was inoculated intranasally to isofluorane-anesthetised cotton rats in a volume of 100 μl. Treatment was performed in the same way at the indicated time points. Four days after infection, the animals were euthanized using CO2 inhalation, and their lungs were collected and weighed. Lung tissue was minced with scissors and homogenized with a glass dounce homogenizer. Vero-SLAM cells were inoculated with serial 10-fold dilutions of supernatant fluids to assess the presence of infectious virus in 48-well plates using cytopathic effect (CPE) as an endpoint. Plates were scored for CPE microscopically after 7 days, and the TCID50 was calculated as described previously^43.

[3] = test system: MeV IC323-EGFP; experiment: Viral spread / plaque enlargement assay in Vero-SLAM cells; type: cell-based, measles virus (MeV)
Description: In an effort to identify a more broadly reactive mAb, the neutralizing activity of two other previously identified mAbs, mAb 77.4 and mAb Y503, was assessed in the experiments shown in FIG. 1 I-K. Vero cells expressing the measles receptor SLAM (Vero-SLAM) were infected with MeV IC323-EGFP virus (the expression of fluorescent protein permits tracking of the spread of infection). Six hours post-infection, the cells were treated with serial dilutions of mAbs 77.4 or Y503.
(H-K) VeroSLAM cells were infected with MeV IC323-EGFP at a multiplicity of infection (MOI)=0.001. […] (K) MeV infection in Vero-SLAM cells either untreated (NT) or treated at the indicated dilution of supernatant fluids from hybridomas producing anti F-mAb 77.4 or mAb Y503 were quantified using fluorescent spectroscopy. Data are expressed as relative fluorescence units (RFUs).
The scFv was expressed in eukaryotic cells and purified by affinity purification using a 6×-hisitidine tag (see Materials and Methods). Vero-SLAM cells were infected with MeV IC323-EGFP virus and six hours post-infection, the cells were treated with serial dilutions of the scFv (62.5 μg/ml and 1.95 μg/ml are shown in 3C and CD) and immunofluorescent syncytium formation was measured to quantify viral spread 48 hours post-infection.
Plaque enlargement assay. […] Quantification was determined using fluorescent spectroscopy.

[4] = molecular target: MeV G954 H/F fusion complex (Measles virus, UniProt Q786F3, H419R/Q139R/R70K); details: SLAM-bearing HEK293T target cells, 6 h
Description: (§1) To assess the specificity of the scFV derived from mAb 77.4 for MeV F, cells expressing either MeV IC323 F or the human parainfluenza virus 3 fusion protein (HPIV3 F) were incubated with the scFv and subjected to immunofluorescence using a fluorescently-labeled Alexa 488 anti 6-histidine antibody (FIG. 3E-F). […] Finally, we assessed whether the scFv blocked cell-cell fusion mediated by either MeV IC323 or G954 H/F fusion complexes (FIG. 3G). For this experiment we used a beta-galactosidase (β-Gal) complementation assay^18 that measures the fusion of cells that express viral envelope glycoproteins (MeV IC323 or G954 H/F) with cells that express the MeV receptor SLAM (FIG. 3G). HEK293T (“target cells”) were transiently transfected with SLAM and the omega reporter subunit of beta-galactosidase, and incubated for the indicated time period in the presence of different concentrations of inhibitors with “effector cells” co-expressing MeV G954 or IC323 H and F together with the alpha reporter subunit of beta-galactosidase. Fusion between the target and effector cells leads to reconstitution of beta-galactosidase activity, which we quantified using the luminescence-based Galacto-Star™ β-Galactosidase Reporter Gene kit (ThermoFisher, US).
(§2) (A) Sequence of the single-chain variable fragment antibody derived from anti-MeV F mAb 77.4. […] Images were obtained using epifluorescent microscopy 48 h post-infection (scale bar=200 μm). (C) HEK293T cells were transfected with either pCAGGS-HPIV3 F or MeV IC323 F and stained using scFv 24 h post-transfection (scale bar=200 μm). (D) Fusion of MeV G954 or IC323 H/F co-expressing cells with SLAM-bearing cells in the presence of scFv at indicated concentrations was quantified at 6 h using a β-galactosidase complementation assay.

[5] = molecular target: MeV IC323 H/F fusion complex (Measles virus, UniProt Q786F3); details: SLAM-bearing HEK293T target cells, 6 h
Description: as §1, §2

[6] = molecular target: human parainfluenza virus 3 fusion protein (HPIV3 F) (Human parainfluenza 3 virus, UniProt P06828); details: HEK293T, 24 h post-transfection
Description: as §1, §2

Row | Molecule | binding result [1] | lung infection ([2]; 0.5 mg/ml intranasal 24 and 12 h before infection) | lung infection ([2]; 1 mg/ml intranasal 24 and 12 h before infection) | viral titers in the lungs compared with untreated controls ([2]; intranasal 24 and 12 h before infection, doses 0.25, 0.5 and 1 mg/ml) | inhibition of viral infection (syncytium formation) ([3]; Vero-SLAM, serial dilutions of scFv, 48 hours post-infection) | in vitro potency compared with the full antibody (mAb 77.4) ([3]; general statement, assay not specified) | inhibition of cell fusion mediated by G954 H/F [4] | inhibition of cell fusion mediated by IC323 H/F [5] | recognition of cells expressing HPIV3 F by scFv [6]
1 | single-chain variable fragment (scFv) derived from anti-MeV F mAb 77.4 (scFv, also called mAb 77.4-derived scFv) scFv: MDVQLQESGPGLVKPSQSLSLTCTVSGYSITSDYAWNWIRQFPGNKLEWMGYISYTLTTGYNPSLKSRISITRDSSKNQFFLQLNSVTTEDTATYYCARSGWLLPYWYFDVWGAGTTVTVSSGGGGSGGGSGGGGSDVQITQSPSYLAASPGETITINCRASKSISKYLAWYQEKPGKTNELLIYSGSTLQSGIPSRFRGSGSGTDFTLTISSLEPEDFAMYYCQQHNEYTLTFGGGTKLELKRHHHHHH | binds |  |  |  |  |  |  |  | 
2 | scFv: single-chain fragment made by fusing VH and VL of mAb 77.4 via G4S linker, 6x-histidine tag; SEQ ID NO:3 (protein, 6x His tag; single-chain variable fragment antibody) scFv: MDVQLQESGPGLVKPSQSLSLTCTVSGYSITSDYAWNWIRQFPGNKLEWMGYISYTLTTGYNPSLKSRISITRDSSKNQFFLQLNSVTTEDTATYYCARSGWLLPYWYFDVWGAGTTVTVSSGGGGSGGGSGGGGSDVQITQSPSYLAASPGETITINCRASKSISKYLAWYQEKPGKTNELLIYSGSTLQSGIPSRFRGSGSGTDFTLTISSLEPEDFAMYYCQQHNEYTLTFGGGTKLELKRHHHHHH |  | completely inhibited lung infection | completely inhibited lung infection | significantly reduced viral titers in the lungs | clearly inhibited viral infection | less than that of the full antibody | inhibited cell fusion | inhibited cell fusion | not those expressing HPIV3 F
